Numbering of substitutions follows the chain as printed. Numbers in names are those of the source.
B1: FLAG-tagged ZAPS C88R (ZnF 2 mutant) (natural protein, human, UniProt Q7Z2W4-2 1-699, looked up)
chain: MADPEVCCFITKILCAHGGRMALDALLQEIALSEPQLCEVLQVAGPDRFVVLETGGEAGITRSVVATTRARVCRRKYCQRPCDNLHLRKLNLLGRCNYSQSERNLCKYSHEVLSEENFKVLKNHELSGLNKEELAVLLLQSDPFFMPEICKSYKGEGRQQICNQQPPCSRLHICDHFTRGNCRFPNCLRSHNLMDRKVLAIMREHGLNPDVVQNIQDICNSKHMQKNPPGPRAPSSHRRNMAYRARSKSRDRFFQGSQEFLASASASAERSCTPSPDQISHRASLEDAPVDDLTRKFTYLGSQDRARPPSGSSKATDLGGTSQAGTSQRFLENGSQEDLLHGNPGSTYLASNSTSAPNWKSLTSWTNDQGARRKTVFSPTLPAARSSLGSLQTPEAVTTRKGTGLLSSDYRIINGKSGTQDIQPGPLFNNNADGVATDITSTRSLNYKSTSSGHREISSPRIQDAGPASRDVQATGRIADDADPRVALVNDSLSDVTSTTSSRVDDHDSEEICLDHLCKGCPLNGSCSKVHFHLPYRWQMLIGKTWTDFEHMETIEKGYCNPGIHLCSVGSYTINFRVMSCDSFPIRRLSTPSSVTKPANSVFTTKWIWYWKNESGTWIQYGEEKDKRKNSNVDSSYLESLYQSCPRGVVPFQAGSRNYELSFQGMIQTNIASKTQKDVIRRPTFVPQWYVQQMKRGPE
notes: zinc finger antiviral protein (ZAP), short isoform ZAPS, cloned from pTRIP-TagRFP-hZAPS; source: ZAP KO 293T cells, transfected (pcDNA3.1-3XFLAG), in lysate; not shown: 3XFLAG, N-terminal, kept
B2: FLAG-tagged ZAPS C96A/Y98A (natural protein, human, UniProt Q7Z2W4-2 1-699, looked up)
chain: B1 chain with R88C, C96A, Y98A
notes: zinc finger antiviral protein (ZAP), short isoform ZAPS, cloned from pTRIP-TagRFP-hZAPS; also called ZAPS CY; CY; source: ZAP KO 293T cells, transfected (pcDNA3.1-3XFLAG), in lysate; not shown: 3XFLAG, N-terminal, kept
B3: FLAG-tagged ZAPS E148A/K151A/R170A (natural protein, human, UniProt Q7Z2W4-2 1-699, looked up)
chain: B1 chain with R88C, E148A, K151A, R170A
notes: zinc finger antiviral protein (ZAP), short isoform ZAPS, cloned from pTRIP-TagRFP-hZAPS; also called ZAPS EKR; EKR; source: ZAP KO 293T cells, transfected (pcDNA3.1-3XFLAG), in lysate; not shown: 3XFLAG, N-terminal, kept
B4: FLAG-tagged ZAPS H176A/F184A/R189A (natural protein, human, UniProt Q7Z2W4-2 1-699, looked up)
chain: B1 chain with R88C, H176A, F184A, R189A
notes: zinc finger antiviral protein (ZAP), short isoform ZAPS, cloned from pTRIP-TagRFP-hZAPS; also called ZAPS HFR; HFR; source: ZAP KO 293T cells, transfected (pcDNA3.1-3XFLAG), in lysate; not shown: 3XFLAG, N-terminal, kept
B5: FLAG-tagged ZAPS H191R (ZnF 4 mutant) (natural protein, human, UniProt Q7Z2W4-2 1-699, looked up)
chain: B1 chain with R88C, H191R
notes: as for B1
B6: FLAG-tagged ZAPS K107A/Y108A (natural protein, human, UniProt Q7Z2W4-2 1-699, looked up)
chain: B1 chain with R88C, K107A, Y108A
notes: zinc finger antiviral protein (ZAP), short isoform ZAPS, cloned from pTRIP-TagRFP-hZAPS; also called ZAPS KY; KY; source: ZAP KO 293T cells, transfected (pcDNA3.1-3XFLAG), in lysate; not shown: 3XFLAG, N-terminal, kept
B7: FLAG-tagged ZAPS V72A/Y108A/F144A (natural protein, human, UniProt Q7Z2W4-2 1-699, looked up)
chain: B1 chain with V72A, R88C, Y108A, F144A
notes: zinc finger antiviral protein (ZAP), short isoform ZAPS, cloned from pTRIP-TagRFP-hZAPS; also called ZAPS VYF; VYF; source: ZAP KO 293T cells, transfected (pcDNA3.1-3XFLAG), in lysate; not shown: 3XFLAG, N-terminal, kept
B8: FLAG-tagged ZAPL C88R (ZnF 2 mutant) (natural protein, human, UniProt Q7Z2W4-1 1-902, looked up)
chain: MADPEVCCFITKILCAHGGRMALDALLQEIALSEPQLCEVLQVAGPDRFVVLETGGEAGITRSVVATTRARVCRRKYCQRPCDNLHLRKLNLLGRCNYSQSERNLCKYSHEVLSEENFKVLKNHELSGLNKEELAVLLLQSDPFFMPEICKSYKGEGRQQICNQQPPCSRLHICDHFTRGNCRFPNCLRSHNLMDRKVLAIMREHGLNPDVVQNIQDICNSKHMQKNPPGPRAPSSHRRNMAYRARSKSRDRFFQGSQEFLASASASAERSCTPSPDQISHRASLEDAPVDDLTRKFTYLGSQDRARPPSGSSKATDLGGTSQAGTSQRFLENGSQEDLLHGNPGSTYLASNSTSAPNWKSLTSWTNDQGARRKTVFSPTLPAARSSLGSLQTPEAVTTRKGTGLLSSDYRIINGKSGTQDIQPGPLFNNNADGVATDITSTRSLNYKSTSSGHREISSPRIQDAGPASRDVQATGRIADDADPRVALVNDSLSDVTSTTSSRVDDHDSEEICLDHLCKGCPLNGSCSKVHFHLPYRWQMLIGKTWTDFEHMETIEKGYCNPGIHLCSVGSYTINFRVMSCDSFPIRRLSTPSSVTKPANSVFTTKWIWYWKNESGTWIQYGEEKDKRKNSNVDSSYLESLYQSCPRGVVPFQAGSRNYELSFQGMIQTNIASKTQKDVIRRPTFVPQWYVQQMKRGPDHQPAKTSSVSLTATFRPQEDFCFLSSKKYKLSEIHHLHPEYVRVSEHFKASMKNFKIEKIKKIENSELLDKFTWKKSQMKEEGKLLFYATSRAYVESICSNNFDSFLHETHENKYGKGIYFAKDAIYSHKNCPYDAKNVVMFVAQVLVGKFTEGNITYTSPPPQFDSCVDTRSNPSVFVIFQKDQVYPQYVIEYTEDKACVIS
notes: zinc finger antiviral protein (ZAP), long isoform ZAPL, cloned from pTRIP-TagRFP-hZAPL; source: ZAP KO 293T cells, transfected (pcDNA3.1-3XFLAG), in lysate; not shown: 3XFLAG, N-terminal, kept
B9: FLAG-tagged ZAPL C96A/Y98A (natural protein, human, UniProt Q7Z2W4-1 1-902, looked up)
chain: B8 chain with R88C, C96A, Y98A
notes: zinc finger antiviral protein (ZAP), long isoform ZAPL, cloned from pTRIP-TagRFP-hZAPL; also called ZAPL CY; CY; source: ZAP KO 293T cells, transfected (pcDNA3.1-3XFLAG), in lysate; not shown: 3XFLAG, N-terminal, kept
B10: FLAG-tagged ZAPL E148A/K151A/R170A (natural protein, human, UniProt Q7Z2W4-1 1-902, looked up)
chain: B8 chain with R88C, E148A, K151A, R170A
notes: zinc finger antiviral protein (ZAP), long isoform ZAPL, cloned from pTRIP-TagRFP-hZAPL; also called ZAPL EKR; EKR; source: ZAP KO 293T cells, transfected (pcDNA3.1-3XFLAG), in lysate; not shown: 3XFLAG, N-terminal, kept
B11: FLAG-tagged ZAPL H176A/F184A/R189A (natural protein, human, UniProt Q7Z2W4-1 1-902, looked up)
chain: B8 chain with R88C, H176A, F184A, R189A
notes: zinc finger antiviral protein (ZAP), long isoform ZAPL, cloned from pTRIP-TagRFP-hZAPL; also called ZAPL HFR; HFR; source: ZAP KO 293T cells, transfected (pcDNA3.1-3XFLAG), in lysate; not shown: 3XFLAG, N-terminal, kept
B12: FLAG-tagged ZAPL H191R (ZnF 4 mutant) (natural protein, human, UniProt Q7Z2W4-1 1-902, looked up)
chain: B8 chain with R88C, H191R
notes: as for B8
B13: FLAG-tagged ZAPL K107A/Y108A (natural protein, human, UniProt Q7Z2W4-1 1-902, looked up)
chain: B8 chain with R88C, K107A, Y108A
notes: zinc finger antiviral protein (ZAP), long isoform ZAPL, cloned from pTRIP-TagRFP-hZAPL; also called ZAPL KY; KY; source: ZAP KO 293T cells, transfected (pcDNA3.1-3XFLAG), in lysate; not shown: 3XFLAG, N-terminal, kept
B14: FLAG-tagged ZAPL V72A/Y108A/F144A (natural protein, human, UniProt Q7Z2W4-1 1-902, looked up)
chain: B8 chain with V72A, R88C, Y108A, F144A
notes: zinc finger antiviral protein (ZAP), long isoform ZAPL, cloned from pTRIP-TagRFP-hZAPL; also called ZAPL VYF; VYF; source: ZAP KO 293T cells, transfected (pcDNA3.1-3XFLAG), in lysate; not shown: 3XFLAG, N-terminal, kept

The binders below were run against T1, myc-tagged TRIM25 WT (tripartite motif-containing protein 25) (UniProt Q14258 1-630) (assay: co-IP; myc IP (anti-myc beads) of myc-TRIM25 WT from lysates of ZAP KO 293T cells co-transfected with FLAG-ZAPS or FLAG-ZAPL WT or mutants; FLAG-ZAP detected by immunoblot; FLAG IP buffer (100 mM Tris-HCl 8.0, 150 mM NaCl, 5 mM EDTA, 1 mM DTT, 5% glycerol, 0.1% NP-40), 4°C, 45 min; FLAG IP band divided by myc IP band (ImageJ)). Settings: partners not purified.
T1 construct: tripartite motif-containing protein 25 (TRIM25), ubiquitin E3 ligase; full-length TRIM25 provided by J. U. Jung (Gack et al., 2007); source: ZAP KO 293T or TRIM25 KO 293T cells, transfected (pcDNA3.1-myc), in lysate; not shown: myc, N-terminal, kept
T1 sequence (Q14258 whole entry): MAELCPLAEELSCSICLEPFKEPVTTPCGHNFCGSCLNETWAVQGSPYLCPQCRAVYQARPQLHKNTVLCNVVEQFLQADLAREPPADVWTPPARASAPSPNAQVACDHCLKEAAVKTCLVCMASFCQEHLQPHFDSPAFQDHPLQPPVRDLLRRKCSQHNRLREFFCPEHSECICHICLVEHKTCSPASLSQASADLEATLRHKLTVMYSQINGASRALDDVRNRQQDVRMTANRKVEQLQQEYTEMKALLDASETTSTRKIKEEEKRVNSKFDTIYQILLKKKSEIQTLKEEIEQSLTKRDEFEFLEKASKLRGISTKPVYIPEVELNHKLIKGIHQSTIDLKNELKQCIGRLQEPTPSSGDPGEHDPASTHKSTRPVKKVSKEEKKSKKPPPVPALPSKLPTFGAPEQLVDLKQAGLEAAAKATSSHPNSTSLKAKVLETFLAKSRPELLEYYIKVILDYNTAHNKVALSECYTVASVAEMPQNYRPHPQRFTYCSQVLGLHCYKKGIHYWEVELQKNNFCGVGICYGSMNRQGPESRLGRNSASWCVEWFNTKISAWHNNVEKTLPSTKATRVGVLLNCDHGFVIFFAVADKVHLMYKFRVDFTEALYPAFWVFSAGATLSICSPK

Binder | ZAP-TRIM25 interaction (co-IP, FLAG-ZAP band over myc-TRIM25 band, ImageJ)
B1 | 0.45
B2 | 0.55
B3 | 0.189
B4 | 0.205
B5 | 1.05
B6 | 0.33
B7 | 0.792
B8 | 1.13
B9 | 0.329
B10 | 0.196
B11 | 0.03
B12 | 0.899
B13 | 0.086
B14 | 0.574

What follows are binders tested against T1, myc-tagged TRIM25 WT (tripartite …) (assay: cell-based or functional assay). Settings: not given.

Binder | JEV translation inhibition: fold inhibition of Renilla luciferase from a replication-defective JEV replicon, relative to empty plasmid, ZAP KO 293T cells, 4 h after replicon transfection
B5 | 2.18 fold inhibition relative to empty plasmid transfection
B8 | 5.19 fold inhibition relative to empty plasmid transfection
B12 | 9.05 fold inhibition relative to empty plasmid transfection

From publication PMC9253567, “The Role of ZAP and TRIM25 RNA Binding in Restricting Viral Translation” (Frontiers in Cellular and Infection Microbiology, 2022)
